Reference: patent US7459156 (University of California, dated 2008)

Experiments:
[1] = target: T1, low affinity nerve growth factor receptor (LNGFR) on PC12 cells (rat, UniProt P07174 30-425); assay: equilibrium ^125I-NGF binding to PC12 cells, Scatchard/LIGAND; control IgG present; low affinity site
T1 construct: whole, on cells
T1 sequence (looked up): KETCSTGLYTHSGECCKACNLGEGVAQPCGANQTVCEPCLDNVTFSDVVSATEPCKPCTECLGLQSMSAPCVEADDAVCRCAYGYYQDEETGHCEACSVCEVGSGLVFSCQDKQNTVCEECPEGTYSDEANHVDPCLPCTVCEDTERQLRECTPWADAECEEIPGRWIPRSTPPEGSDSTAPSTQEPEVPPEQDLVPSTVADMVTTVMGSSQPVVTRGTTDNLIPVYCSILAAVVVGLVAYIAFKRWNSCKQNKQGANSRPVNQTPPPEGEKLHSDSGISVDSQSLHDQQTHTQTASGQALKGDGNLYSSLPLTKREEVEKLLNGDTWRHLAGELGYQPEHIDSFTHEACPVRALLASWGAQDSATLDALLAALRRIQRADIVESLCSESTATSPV
Procedure: (§1) Binding Assays. […] Nonspecific binding was determined by addition of […] unlabeled NGF, and ranged from 2-25% of specific binding. Determinations were made in triplicate. The equilibrium binding data from two experiments were combined for the Scatchard analysis (Scatchard, G., *Analys of NY Acad. Sciences* 5:660-672 (1949)), which was performed with the program LIGAND (Munson, P. J. and Rodbard, D., *Anal. Biochem.*, 107, 220-239 (1980)). The Scatchard data are plotted as fmoles bound per 10^5 cells (equivalent to a volume of 2×10^-4 liters).
(§2) To analyze the characteristics of the NGF binding sites remaining in the presence of the anti-LNGFR or -trkA antibodies, equilibrium binding assays were performed from 3.5 to 4000 pM NGF. The results are plotted by the Scatchard method in FIG. 2. As is now well known, PC12 cells have NGF binding sites with differing kinetic characteristics, leading to low and high affinity binding sites (Schechter and Bothwell, 1981). This is observed in the biphasic graph of NGF binding determined in the presence of control IgG (FIG. 2, open squares; the binding parameters are presented in Table 1).
(§3) FIG. 2 is an analysis of anti-LNGFR- and RtrkA.EX-resistant NGF binding sites. […] Nonspecific binding was determined as in FIG. 1A; values were determined in triplicate.

[2] = target: T2, rat trkA receptor (full length, 140 kD) (rat, UniProt P35739 33-799); assay: equilibrium ^125I-NGF binding to PC12 cells, Scatchard/LIGAND; control IgG present; high affinity site
T2 construct: whole, on cells; also called p140trk; native trkA receptor protein
T2 sequence (P35739 33-799): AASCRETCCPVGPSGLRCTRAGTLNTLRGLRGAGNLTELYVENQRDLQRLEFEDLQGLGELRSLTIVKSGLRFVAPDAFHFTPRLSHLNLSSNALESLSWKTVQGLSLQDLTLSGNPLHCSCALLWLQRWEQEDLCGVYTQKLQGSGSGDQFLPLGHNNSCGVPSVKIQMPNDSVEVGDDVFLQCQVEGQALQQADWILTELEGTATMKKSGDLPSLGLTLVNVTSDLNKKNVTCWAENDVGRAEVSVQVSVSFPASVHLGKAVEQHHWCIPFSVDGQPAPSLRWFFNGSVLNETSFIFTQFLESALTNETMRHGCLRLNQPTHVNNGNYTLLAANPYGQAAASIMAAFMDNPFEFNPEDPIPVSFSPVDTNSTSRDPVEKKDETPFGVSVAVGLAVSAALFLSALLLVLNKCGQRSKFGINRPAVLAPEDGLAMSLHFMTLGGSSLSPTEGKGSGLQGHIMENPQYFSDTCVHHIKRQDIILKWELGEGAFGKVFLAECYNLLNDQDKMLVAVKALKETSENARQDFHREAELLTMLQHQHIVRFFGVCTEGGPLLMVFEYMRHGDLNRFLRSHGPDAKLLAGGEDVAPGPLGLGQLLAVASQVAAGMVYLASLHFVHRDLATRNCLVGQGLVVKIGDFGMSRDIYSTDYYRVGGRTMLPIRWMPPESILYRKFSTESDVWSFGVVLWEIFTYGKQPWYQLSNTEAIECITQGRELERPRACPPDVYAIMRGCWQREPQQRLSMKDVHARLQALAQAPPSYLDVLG
Procedure: as §1, §2, §3

[3] = target: T1, low affinity nerve growth factor …; assay: equilibrium ^125I-NGF binding to PC12 cells, Scatchard/LIGAND; 500 ug/ml RtrkA.EX IgG present; remaining low affinity site
Procedure: as §1, §2, §3

[4] = target: T2, rat trkA receptor (full length, 140 kD); assay: equilibrium ^125I-NGF binding to PC12 cells, Scatchard/LIGAND; 500 ug/ml anti-LNGFR IgG present; remaining high affinity site
Procedure: as §1, §2, §3

B1: nerve growth factor (NGF) (ligand, mouse, UniProt P01139 122-241, looked up)
chain: SSTHPVFHMGEFSVCDSVSVWVGDKTTATDIKGKEVTVLAEVNINNSVFRQYFFETKCRASNPVESGCRGIDSKHWNSYCTTTHTFVKALTTDEKQAAWRFIRIDTACVCVLSRKATRRG
modifications: 125I label on the NGF used in the binding assays
notes: mature; The species is stated only for the unlabelled NGF; the labelled NGF was bought
Binder B1 has a Kd [1] of 1.8 nM, a Kd [2] of 0.038 nM and a Kd [3] of 1.1 nM. For the same binder, the Kd [4] was 0.092 nM.
